In US20240218035:

Biological target: inactive hepatocyte growth factor (pro-HGF), single-stranded form, in CHO culture supernatant
Sequence (chain, as listed by the source): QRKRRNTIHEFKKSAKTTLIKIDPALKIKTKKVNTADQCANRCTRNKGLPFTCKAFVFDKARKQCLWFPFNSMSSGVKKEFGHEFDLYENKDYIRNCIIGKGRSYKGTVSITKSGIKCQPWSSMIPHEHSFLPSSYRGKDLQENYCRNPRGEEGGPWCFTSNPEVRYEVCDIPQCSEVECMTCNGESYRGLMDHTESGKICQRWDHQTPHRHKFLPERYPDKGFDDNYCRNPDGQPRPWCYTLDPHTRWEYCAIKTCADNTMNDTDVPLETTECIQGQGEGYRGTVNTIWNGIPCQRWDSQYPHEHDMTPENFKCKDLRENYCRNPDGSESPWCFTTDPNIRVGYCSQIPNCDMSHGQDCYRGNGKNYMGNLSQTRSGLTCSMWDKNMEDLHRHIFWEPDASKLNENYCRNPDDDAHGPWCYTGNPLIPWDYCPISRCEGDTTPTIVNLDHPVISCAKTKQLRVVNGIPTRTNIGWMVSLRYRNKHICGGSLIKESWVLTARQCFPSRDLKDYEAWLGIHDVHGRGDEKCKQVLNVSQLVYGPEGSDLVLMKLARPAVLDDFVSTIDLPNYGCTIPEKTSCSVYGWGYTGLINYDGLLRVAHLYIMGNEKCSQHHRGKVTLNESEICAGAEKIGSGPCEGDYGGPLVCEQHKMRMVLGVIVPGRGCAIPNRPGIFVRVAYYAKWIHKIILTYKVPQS

B1: active hepatocyte growth factor activator (active HGFA), as activated HGFA culture supernatant from CHO cells (protein)
chain: VQLSPDLLATLPEPASPGRQACGRRHKKRTFLRPRIIGGSSSLPGSHPWLAAIYIGDSFCAGSLVHTCWVVSAAHCFSHSPPRDSVSVVLGQHFFNRTTDVTQTFGIEKYIPYTLYSVFNPSDHDLVLIRLKKKGDRCATRSQFVQPICLPEPGSTFPAGHKCQIAGWGHLDENVSGYSSSLREALVPLVADHKCSSPEVYGADISPNMLCAGYFDCKSDACQGDSGGPLACEKNGVAYLYGIISWGDGCGRLHKPGVYTRVANYVDWINDRIRPPRRLVAPS
- activation state of pro-HGF confirmed with SDS-PAGE (conversion of the single strand into α and β chains) after about 20 hours of reaction at 25° C.: under a reductive condition after activation the single strand substance had disappeared and separated into α and β chains, and thus sufficient activation of pro-HGF was confirmed
